According to patent publication US20040071698A1 (UAB RESEARCH FOUNDATION, published 2004):

Legend:
[1] = molecular target: T1, truncated EGFR, EGFRvIII, on U87MG.deltaEGFR human glioma cells (UniProt P00533 25-1210); assay: FACS on U87MG.deltaEGFR cells, culture medium, anti-alpha tubulin and FITC anti-rat detection
T1 construct: whole, on cells; also called U87MG.AEGFR; truncated and/or mutated epidermal growth factor receptor
Procedure: (§1) The cells, U87MG, U87MG.wtEGFR and U87MG.AEGFR were incubated with culture medium, culture medium from pSECTAG or p6.34 for 30 min at 4° C. The cells were washed, then incubated with rat anti-alpha tubulin followed by FITC-labeled anti-rat antibody.
(§2) The EGFR has three major domains, intracellular, transmembrane and extracellular, any of which may serve as the binding site for clone p6.34. To examine whether the scFv binds to the extracellular portion of the receptor, a FACS analysis was used for this determination. For this assay, culture medium collected from U87MG.pSECTAG or U87MG.pSECTAG.6.34.A8 was allowed to interact with the cell surface of 3 different human glioma sublines; U87MG, U87MG.wtEGFR and U87MG.AEGFR (provided by Dr. H-J. Su Huang, UCSD).

[2] = molecular target: T2, wild-type EGFR on U87MG.wtEGFR human glioma cells (UniProt P00533 25-1210, limits assumed); assay: FACS on U87MG.wtEGFR cells, culture medium, anti-alpha tubulin and FITC anti-rat detection
T2 construct: whole, on cells; Estimated at >3x10^6 EGFR per cell; also called native full length epidermal growth factor receptor
Procedure: as §1, §2

B1: secretory anti-EGFR scFv clone 6 secreted by stably transfected U87MG.6.34.A8 cells (clone p6.34) (scFv, not shown: small tags and cut ends)
scFv: EVQLVESGGGLVQPGGSLRLSCSASGFTFSSYAMHWVRQAPGKGLEYVSAISSNGGSTYYADSVKGRFTISRDNSKNTLYLQMSSLRAEDTAVYYCVKDVGGSSWYWADYFDYWGQGTLVTVSSGSASAPKLEEGEFSEARVQSVLTQPPSLSVSPGQTASITCSGDKLGDKYASWYQQKPGQSPVLVIYQDRKRPSGIPERFSGSNSGNTATLTISGTQAMDEADYYCQAWDSSTPYVFGTGTKVTVLGQPKANPTVTLFPPSSAAA
notes: The scFv insert was moved from pSEX81 as a Bpu1102I/NotI fragment behind an Ig kappa leader; also called scFv p6.34; clone p6.34 scFv
B1: binds [1]; binds [2].
